Results taken from paper PMC5501728.
One block for each substance: values may come before it.

Legend:
[1] = biological target: PGAM5 residues 81–289 (human) (UniProt Q96HS1); test: AUC; sedimentation velocity, 4°C, 45,000 rpm, protein 50-60 μM in 50 mM Tris pH 7.5, 300 mM NaCl, 0.5 mM TCEP
[2] = biological target: ΔN54-PGAM5, His6 tag cleaved (human) (UniProt Q96HS1); test: crystal structure; ΔN54-PGAM5-phosphate complex; sitting drop, 20°C, 18% PEG 3350, 0.1 M MES pH 5.7
[3] = biological target: ΔN90-PGAM5 (residues 90–289), His6 tag cleaved (human) (UniProt Q96HS1); test: AUC; sedimentation velocity, 4°C, 45,000 rpm, protein 50-60 μM in 50 mM Tris pH 7.5, 300 mM NaCl, 0.5 mM TCEP
[4] = biological target: ΔN90-PGAM5 (residues 90–289), His6 tag cleaved (human) (UniProt Q96HS1); test: crystal structure; ΔN90-PGAM5 apo and phosphate complex; sitting drop, 20°C, PEG 3350 and 5000 MME 12-20%, 0.1 M HEPES pH 7.5
[5] = biological target: ΔN90-PGAM5 (residues 90–289), His6 tag cleaved (human) (UniProt Q96HS1); test: AUC; sedimentation equilibrium, dimer to monomers (self-association model, global fit); 0.7, 0.46 and 0.35 mg/ml in 50 mM HEPES pH 7.5, 300 mM NaCl, 0.5 mM TCEP; 12,000 and 18,000 rpm
[6] = biological target: ΔN90-PGAM5, His6 tag not cleaved (for analytical SEC) (human) (UniProt Q96HS1); test: SEC; Superdex Increase s200 10/300 GL, 50 mM Tris pH 7.5, 200 mM NaCl; His-tagged proteins at several concentrations

- stoichiometry N [1]: 2
Substance: PGAM5 residues 81–289 (from UniProt Q96HS1 81-289) (domain or fragment)

- stoichiometry N [2]: 12
Substance: ΔN54-PGAM5, His6 tag cleaved (from UniProt Q96HS1 54-289) (domain or fragment)

- stoichiometry N [3]: 2
- stoichiometry N [4]: 2
- Kd [5]: 480 nM
Substance: ΔN90-PGAM5 (residues 90–289), His6 tag cleaved (from UniProt Q96HS1 90-289) (domain or fragment)

- stoichiometry N [6]: 2
Substance: ΔN90-PGAM5, His6 tag not cleaved (for analytical SEC) (from UniProt Q96HS1 90-289) (domain or fragment)
